Our source for the specific binding of 20 ng/ml GpL-TNF, fold over the unspecific background (the pair that is blocked) values is publication PMC5925078.

Where only a bound is given, the exact number is not on record here.

The target of assay [1] is TNFR2 variant in which the intracellular binding site for TRAF2 has been substituted by YFP, P20333. Nature of the assay: cellular binding study with GpL (luciferase) fusion protein; competition; HEK293 cells transiently expressing TNFR1 or TNFR2 (YFP deletion mutants); preincubation with purified sTNF or PGRN at 37°C; 10-20 ng/ml GpL-TNF; EV-transfected cells as non-specific binding.

Assay [2] concerns the target cytosolic deletion mutant of TNFR1 in which the death domain has been replaced by YFP, P19438. Described as above.

B1: GpL-Flag-TNC-TNF (ligand)
chain: ACGCAAAPDIKDLLSRLEELEGLVSSLREQSDKPVAHVVANPQAEGQLQWLNRRANALLANGVELRDNQLVVPSEGLYLIYSQVLFKGQGCPSTHVLLTHTISRIAVSYQTKVNLLSAIKSPCQRETPEGAEAKPWYEPIYLGGVFQLEKGDRLSAEINRPDYLDFAESGQVYFGIIAL
Regarding B1, the specific binding of 20 ng/ml GpL-TNF, fold over the unspecific background (the pair that is blocked) in assay [1] is > 2400 fold; in assay [2] it was > 800 fold.
